Test results as given in the RNAGym collection of RNA variant scans (doi:10.7554/elife.80360).

B1: HDV Ribozyme (parent)
chain: GGCCGGCAUGGUCCCAGCCUCCUCGCUGGCGCCGGCUGGGCAACAUUCCGAGGGGACCGUCCCCUCGGUAAUGGCGAAUGGGACCCA

Variants of: B1
Test: self-cleavage, relative activity (ratio to wild type); higher = more cleavage; co-transcriptional

| Variant | self-cleavage |
| --- | --- |
| GGCCGGCAUGGUCCCAGCCUGCUCGCUGGCGCCGGCUGGGCAAGAUUCCGAGGGGACCGUCCCCUCGGUAAUGGCGAAUGGGACCCA | 0.141 |
| GGCCGGCAUGGUCCCAGCCUGCUCGCUGGCGCCGGCUGGGCAACAUUCCGAGGGGACCGUCCCCUCGAUAAUGGCGAAUGGGACCCA | 0.0707 |
| GGCCGGCAUGGUCCCAGCCUGCUCGCUGGCGCCGCCUGGGCAACAUUCCGAGGGGACCGUCCCCUCGGUAAUGGCGAAUGGGACCCA | 0.178 |
| GGCCGGCAUGGUCCCAGCCUGCUCGCUGGUGCCGGCUGGGCAACAUUCCGAGGGGACCGUCCCCUCGGUAAUGGCGAAUGGGACCCA | 0.0308 |
| GGCCGGCAUGGUCCCAGCCUGCUCGCUGGCGCCGGCUGGGCAACAUUCCGAGGGGACCGUCCCGUCGGUAAUGGCGAAUGGGACCCA | 0 |
| GGCCGGCAUGGUCCCAGCCUGCUCGCUGGCGCCGGCUGGGCAACAUUCCGAGGGGACCGUGCCCUCGGUAAUGGCGAAUGGGACCCA | 0.0386 |
| GGCCGGCAUGGUCCCAGCCUGCUCGCUGGCGCCGGCUGGGCAACAUUCCGAGGGGACCGUACCCUCGGUAAUGGCGAAUGGGACCCA | 0 |
| GGCCGGCAUGGUCCCAGCCUGCUCGCUAGCGCCGGCUGGGCAACAUUCCGAGGGGACCGUCCCCUCGGUAAUGGCGAAUGGGACCCA | 0.0744 |
| GGCCGGCAUGGUCCCAGCCUGCUCGCUCGCGCCGGCUGGGCAACAUUCCGAGGGGACCGUCCCCUCGGUAAUGGCGAAUGGGACCCA | 0.0755 |
| GGCCGGCAUGGUCCCAGCCUGCUCGCUGGCGCCGGCUGGGCAACAUUCCGAGGGGACUGUCCCCUCGGUAAUGGCGAAUGGGACCCA | 0.0314 |
| GGCCGGCAUGGUCCCAGCCUGCUCGCUGGCGCCGGCUGGGCAACAUUCCGAGGGGACGGUCCCCUCGGUAAUGGCGAAUGGGACCCA | 0 |
| GGCCGGCAUGGUCCCAGCCUGCUCGCUGGCGCCGGCUGGGCAACAUUCCGAGGGGACAGUCCCCUCGGUAAUGGCGAAUGGGACCCA | 0.0396 |
| GGCCGGCAUGGUCCCAGCCUGCUCGCUGGCGCCGGCUGGGCAACAUUCCGAGGGGACCGUCCCCUCGGUAAUGGCGAAUGGGACGCA | 0.219 |
| GGCCGGCAUGGUCCCAGCCUGCUCGCUGGCACCGGCUGGGCAACAUUCCGAGGGGACCGUCCCCUCGGUAAUGGCGAAUGGGACCCA | 0.18 |
| GGCCGGCAUGGUCCCAGCCUGCUCGCUGGCGCCGGCUGGGCAACAUUCCGAGGGGACCGUCCCCUCGGUAAUGGGGAAUGGGACCCA | 0.0426 |
| GGCCGGCAUGGUCCCAGCCUGAUCGCUGGCGCCGGCUGGGCAACAUUCCGAGGGGACCGUCCCCUCGGUAAUGGCGAAUGGGACCCA | 0.0396 |
| GGCCGGCAUGGUCCCAGCCUGGUCGCUGGCGCCGGCUGGGCAACAUUCCGAGGGGACCGUCCCCUCGGUAAUGGCGAAUGGGACCCA | 0 |
| GGCCGGCAUGGUCCCAGCCUGUUCGCUGGCGCCGGCUGGGCAACAUUCCGAGGGGACCGUCCCCUCGGUAAUGGCGAAUGGGACCCA | 0.0519 |
| GGCCGGCAUGGUCCCAGCCUGCUCGCUGGCGCCGGCUGGGCAACAUUCCGAGGGGACCGUCCCCUCGGUAAUGGCGAAUGGGUCCCA | 0.0875 |
| GGCCGGCAUGGUCCCAGCCUGCUCGCUGGCGCCGGCUGGGCAACAUUCCGAGGGGACCGUCCCCUCCGUAAUGGCGAAUGGGACCCA | 0.0978 |
| GGCCGGCAUGGUCCCAGCCUGCUCGCUGGCGCCGGCUGGGCAACAUUCCGAGGGGACCGUCCCCUAGGUAAUGGCGAAUGGGACCCA | 0.0739 |
| GGCCGGCAUGGUCCCAGCCUGCUCGCUGGCGCCGGCUGGGCAACAUUCCGAGGGGACCGUCCCCUGGGUAAUGGCGAAUGGGACCCA | 0 |

| Variant | self-cleavage |
| --- | --- |
| GGCCGGCAUGGUCCCAGCCUGCUCUCUGGCGCCGGCUGGGCAACAUUCCGAGGGGACCGUCCCCUCGGUAAUGGCGAAUGGGACCCA | 0 |
| GGCCGGCAUGGUCCCAGCCUGCUCCCUGGCGCCGGCUGGGCAACAUUCCGAGGGGACCGUCCCCUCGGUAAUGGCGAAUGGGACCCA | 0.0489 |
| GGCCGGCAUGGUCCCAGCCUGCUAGCUGGCGCCGGCUGGGCAACAUUCCGAGGGGACCGUCCCCUCGGUAAUGGCGAAUGGGACCCA | 0.0437 |
| GGCCGGCAUGGUCCCAGCCUGCUUGCUGGCGCCGGCUGGGCAACAUUCCGAGGGGACCGUCCCCUCGGUAAUGGCGAAUGGGACCCA | 0 |
| GGCCGGCAUGGUCCCAGCCUGCUCGCUGGCGCCGGCUGGACAACAUUCCGAGGGGACCGUCCCCUCGGUAAUGGCGAAUGGGACCCA | 0.0346 |
| GGCCGGCAUGGUCCCAGCCUGCUCGCUGGCGCCGGCUGGCCAACAUUCCGAGGGGACCGUCCCCUCGGUAAUGGCGAAUGGGACCCA | 0.0898 |
| GGCCGGCAUGGUCCCAGCCUGCUCGCUGGCGCCGGCUGGGCAACAUUCCGAGGGGACCGUCCCCUCGGUAAUGGCGAAUGGGAACCA | 0.138 |
| GGCCGGCAUGGUCCCAGCCUGCUCGCUGGCGCCGGCUGGGCAACAUUCCGAGGGGACCGUCCCCUCGGUAAUGGCGCAUGGGACCCA | 0.0536 |
| GGCCGGCAUGGUCCCAGCCUGCUCGCUGGCGCCGGCUGGGCAACAUUCCGAGGGGACCGUCCCCUCGGUAAUGGCGGAUGGGACCCA | 0.0386 |
| GGCCGGCAUGGUCCCAGCCUGCUCGCUGGCGCCGGCUGGGCAACAUUGCGAGGGGACCGUCCCCUCGGUAAUGGCGAAUGGGACCCA | 0.115 |
| GGCCGGCAUGGUCCCAGCCUGCUCGCUGGCGCCGGCUGGGCAACAUUACGAGGGGACCGUCCCCUCGGUAAUGGCGAAUGGGACCCA | 0 |
| GGCCGGCAUGGUCCCAGCCUGCUCGCUGGCGCCGGCUGGGCAACAUUCCGAGAGGACCGUCCCCUCGGUAAUGGCGAAUGGGACCCA | 0.0511 |
| GGCCGGCAUGGUCCCAGCCUGCUCGCUGGCGCCGGCUGGGCAACAUUCCGAGUGGACCGUCCCCUCGGUAAUGGCGAAUGGGACCCA | 0.0248 |
| GGCCGGCAUGGUCCCAGCCUGCUCGCUGGCGCCGGCUGGGCAACAUUCAGAGGGGACCGUCCCCUCGGUAAUGGCGAAUGGGACCCA | 0 |
| GGCCGGCAUGGUCCCAGCCUGCUCGCUGGCGCCGGCUGGGCAACAUUCGGAGGGGACCGUCCCCUCGGUAAUGGCGAAUGGGACCCA | 0 |
| GGCCGGCAUGGUCCCAGCCUGCUCGCUGGCGCCGGCUGGGCAACAUUCUGAGGGGACCGUCCCCUCGGUAAUGGCGAAUGGGACCCA | 0 |
| GGCCGGCAUGGUCCCAGCCUGCUCGCUGGCGCCGGCUGGGAAACAUUCCGAGGGGACCGUCCCCUCGGUAAUGGCGAAUGGGACCCA | 0.0573 |
| GGCCGGCAUGGUCCCAGCCUGCUCGCUGGCGCCGGCUGUGCAACAUUCCGAGGGGACCGUCCCCUCGGUAAUGGCGAAUGGGACCCA | 0.0378 |
| GGCCGGCAUGGUCCCAGCCUGCUCGCUGGCGCCGGCUGAGCAACAUUCCGAGGGGACCGUCCCCUCGGUAAUGGCGAAUGGGACCCA | 0.0563 |
| GGCCGGCAUGGUCCCAGCCUGCUCGCUGGCGCCAGCUGGGCAACAUUCCGAGGGGACCGUCCCCUCGGUAAUGGCGAAUGGGACCCA | 0.0386 |
| GGCCGGCAUGGUCCCAGCCUGCUCGCUGGCGCCGGCUGGGCAACAUUCCGAGGGGACCUUCCCCUCGGUAAUGGCGAAUGGGACCCA | 0.0941 |
| GGCCGGCAUGGUCCCAGCCUGCUCGCUGGCGCCGGCUGGGCAACAUUCCGAGGGGACCAUCCCCUCGGUAAUGGCGAAUGGGACCCA | 0.0594 |

| Variant | self-cleavage |
| --- | --- |
| GGCCGGCAUGGUCCCAGCCUGCUCGCUGGCGCCGGCUGGGCAACAUUCCGAGGAGACCGUCCCCUCGGUAAUGGCGAAUGGGACCCA | 0.0496 |
| GGCCGGCAUGGUCCCAGCCUGCUCGCUGGCGCCGGCUGGGCAACAUUCCGAGGUGACCGUCCCCUCGGUAAUGGCGAAUGGGACCCA | 0.0875 |
| GGCCGGCAUGGUCCCAGCCUGCUCGCUGGCGCCGGCUGGGCAACAUUCCGAGGGGAACGUCCCCUCGGUAAUGGCGAAUGGGACCCA | 0.166 |
| GGCCGGCAUGGUCCCAGCCUGCUCGCUGGCGCCGGCUGGGCAACAUUCCGAGGGGAUCGUCCCCUCGGUAAUGGCGAAUGGGACCCA | 0.138 |
| GGCCGGCAUGGUCCCAGCCUGCUCGCUGGCGCCGGCUUGGCAACAUUCCGAGGGGACCGUCCCCUCGGUAAUGGCGAAUGGGACCCA | 0.0702 |
| GGCCGGCAUGGUCCCAGCCUGCUCGCUGGCGCCGGCUAGGCAACAUUCCGAGGGGACCGUCCCCUCGGUAAUGGCGAAUGGGACCCA | 0.0339 |
| GGCCGGCAUGGUCCCAGCCUGCUCGCUGGCGCCGGCUGGGCAACAUUCCGAUGGGACCGUCCCCUCGGUAAUGGCGAAUGGGACCCA | 0.117 |
| GGCCGGCAUGGUCCCAGCCUGCUCGCUGGCGCCGGCUGGGCAACAUUCCGACGGGACCGUCCCCUCGGUAAUGGCGAAUGGGACCCA | 0.111 |
| GGCCGGCAUGGUCCCAGCCUGCUCGCUGGCGACGGCUGGGCAACAUUCCGAGGGGACCGUCCCCUCGGUAAUGGCGAAUGGGACCCA | 0.0415 |
| GGCCGGCAUGGUCCCAGCCUGCUCGCUGGCGGCGGCUGGGCAACAUUCCGAGGGGACCGUCCCCUCGGUAAUGGCGAAUGGGACCCA | 0.19 |
| GGCCGGCAUGGUCCCAGCCUGCUCGCUGGCGCCGGCUGGGCAACAUUCCGAGGGGACCGUCCCCUCGGUAAUGGCGAAUGGGACCAA | 0.0665 |
| GGCCGGCAUGGUCCCAGCCUGCUCGCUGGCGCCGGCUGGGCAACAUUCCGAGGGGACCGUCCCCUCGGUAAUGGCGAAUGGGACCGA | 0.0369 |
| GGCCGGCAUGGUCCCAGCCUGCUCGCUGGCGCCGGCUGGGCAACAUUCCCAGGGGACCGUCCCCUCGGUAAUGGCGAAUGGGACCCA | 0.116 |
| GGCCGGCAUGGUCCCAGCCUGCUCGCUGGCGCCGGCUGGGCAACAUUCCUAGGGGACCGUCCCCUCGGUAAUGGCGAAUGGGACCCA | 0.0594 |
| GGCCGGCAUGGUCCCAGCCUGCUCGCUGGCGCCGGCUGGGCAACAUUCCAAGGGGACCGUCCCCUCGGUAAUGGCGAAUGGGACCCA | 0 |
| GGCCGGCAUGGUCCCAGCCUGCUCGCUGCCGCCGGCUGGGCAACAUUCCGAGGGGACCGUCCCCUCGGUAAUGGCGAAUGGGACCCA | 0.0707 |
| GGCCGGCAUGGUCCCAGCCUGCUCGCUGACGCCGGCUGGGCAACAUUCCGAGGGGACCGUCCCCUCGGUAAUGGCGAAUGGGACCCA | 0 |
| GGCCGGCAUGGUCCCAGCCUGCUCGCUGGCGCCGGCUGGGCAACAUUCCGAGGGGACCGUCCCCUCGGUAAUGGCGAGUGGGACCCA | 0.135 |
| GGCCGGCAUGGUCCCAGCCUGCUCGCUGGCGCCGGCUGGGCAACAUUCCGAGGGGACCGUCCCCUCGGUAAUGGCGACUGGGACCCA | 0.0462 |
| GGCCGGCAUGGUCCCAGCCUGCUCGGUGGCGCCGGCUGGGCAACAUUCCGAGGGGACCGUCCCCUCGGUAAUGGCGAAUGGGACCCA | 0.0723 |
